Measurements published in patent publication US20240158521A1 (WISTAR INSTITUTE OF ANATOMY AND BIOLOGY, published 2024).

What was measured:
[1] = target: T1, recombinant IL13Rα2 (Sino biological) (UniProt Q14627 27-343, limits assumed); experiment: binding ELISA, recombinant purified BTE on coated recombinant IL13Rα2
T1 construct: Bought protein; construct not described
T1 sequence (looked up): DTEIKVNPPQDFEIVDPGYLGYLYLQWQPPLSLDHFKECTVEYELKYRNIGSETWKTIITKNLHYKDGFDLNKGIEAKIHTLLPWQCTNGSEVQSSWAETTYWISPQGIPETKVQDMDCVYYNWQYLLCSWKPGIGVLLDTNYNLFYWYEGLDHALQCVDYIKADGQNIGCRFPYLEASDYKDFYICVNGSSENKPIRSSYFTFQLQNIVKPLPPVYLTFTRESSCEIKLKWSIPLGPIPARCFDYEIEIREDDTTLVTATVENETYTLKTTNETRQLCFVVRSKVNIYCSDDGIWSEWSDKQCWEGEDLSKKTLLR
Description: (§1) ELISA plates were coated with either IL13Rα2/IL13Rα1 (Sino biological, […]) or CD3 (Acrobiosystems, 1 μg/ml) overnight at 4C. Blocking was performed with PBST-10% FBS for 1 hour. As primary antibody, supernatants from Expi293F cells transfected with dBTEs was used or pVax as negative control at different dilutions. The cells were incubated at room temperature for 1 hour. Secondary antibody was a goat anti-human fab fragment specific HRP conjugated (Jackson immunoresearch). After 1 hour incubation the blots were developed with TMB solution and read OD at 450 nm. To determine binding kinetics, recombinant BTEs were used at indicated concentrations as primary antibody, and HRP conjugated anti-His tag antibody (Biolegend) or goat anti-mouse fab fragment specific antibody as secondary antibody.

[2] = target: T2, IL13Rα2 expressed on tumor cells (U87, U373, U251) (UniProt Q14627 27-380, limits assumed); experiment: cell-based or functional assay
T2 sequence (looked up): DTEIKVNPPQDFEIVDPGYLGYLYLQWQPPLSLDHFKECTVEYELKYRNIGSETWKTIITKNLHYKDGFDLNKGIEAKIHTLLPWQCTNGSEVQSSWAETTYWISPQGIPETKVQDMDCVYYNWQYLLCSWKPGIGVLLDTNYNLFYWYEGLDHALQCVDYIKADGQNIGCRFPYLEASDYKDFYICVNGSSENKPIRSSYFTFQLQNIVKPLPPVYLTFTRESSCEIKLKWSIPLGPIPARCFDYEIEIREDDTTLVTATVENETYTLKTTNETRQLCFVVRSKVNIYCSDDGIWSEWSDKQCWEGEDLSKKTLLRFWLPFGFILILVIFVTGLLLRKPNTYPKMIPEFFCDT

[3] = target: T3, recombinant IL13Rα2 (Sino biological) (UniProt Q14627 27-343); experiment: ELISA
T3 chain: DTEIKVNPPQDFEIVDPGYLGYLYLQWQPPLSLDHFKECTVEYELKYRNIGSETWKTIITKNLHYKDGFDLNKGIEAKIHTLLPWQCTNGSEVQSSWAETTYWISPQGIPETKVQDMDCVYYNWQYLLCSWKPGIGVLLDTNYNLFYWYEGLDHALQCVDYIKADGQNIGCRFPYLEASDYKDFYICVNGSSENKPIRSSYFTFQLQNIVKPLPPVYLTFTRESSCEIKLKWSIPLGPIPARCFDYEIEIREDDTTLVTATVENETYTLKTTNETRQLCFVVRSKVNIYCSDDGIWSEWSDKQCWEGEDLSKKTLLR

[4] = target: T4, recombinant CD3 protein (Acrobiosystems) (UniProt P07766 23-126); experiment: ELISA
T4 chain: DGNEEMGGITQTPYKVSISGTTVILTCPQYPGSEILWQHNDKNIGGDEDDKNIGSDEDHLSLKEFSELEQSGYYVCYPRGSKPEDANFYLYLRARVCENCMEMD

[5] = target: T5, IL13Rα1 expressed on tumor cells (UniProt P78552 22-427, limits assumed); experiment: binding to tumor cells (method not given)
T5 construct: whole, on cells
T5 sequence (looked up): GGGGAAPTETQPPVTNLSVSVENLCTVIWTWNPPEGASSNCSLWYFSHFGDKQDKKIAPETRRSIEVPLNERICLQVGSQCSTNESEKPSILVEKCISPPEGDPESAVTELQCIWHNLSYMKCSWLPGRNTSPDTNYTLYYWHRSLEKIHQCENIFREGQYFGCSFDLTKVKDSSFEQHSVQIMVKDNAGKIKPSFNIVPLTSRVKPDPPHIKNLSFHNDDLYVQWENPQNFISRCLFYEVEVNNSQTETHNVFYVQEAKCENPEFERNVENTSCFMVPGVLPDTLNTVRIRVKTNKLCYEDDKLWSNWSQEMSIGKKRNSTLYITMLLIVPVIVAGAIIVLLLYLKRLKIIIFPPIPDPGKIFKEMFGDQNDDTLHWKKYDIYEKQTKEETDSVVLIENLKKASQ

[6] = target: T6, recombinant IL13Rα1 (Sino biological) (UniProt P78552 22-343, limits assumed); experiment: binding ELISA, plate coated with IL13Rα1, Expi293F supernatant
T6 construct: Bought protein; construct not described
T6 sequence (looked up): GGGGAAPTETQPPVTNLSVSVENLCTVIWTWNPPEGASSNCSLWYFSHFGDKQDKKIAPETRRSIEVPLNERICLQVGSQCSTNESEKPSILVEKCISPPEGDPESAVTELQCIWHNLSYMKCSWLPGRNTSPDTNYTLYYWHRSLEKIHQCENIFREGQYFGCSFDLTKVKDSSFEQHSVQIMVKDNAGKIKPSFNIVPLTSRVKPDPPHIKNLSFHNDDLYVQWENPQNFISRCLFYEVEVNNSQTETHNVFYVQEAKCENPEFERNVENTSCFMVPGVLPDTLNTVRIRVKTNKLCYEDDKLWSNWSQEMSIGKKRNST
Description: as §1

B1: PB01-forward (bispecific antibody)
chain: DIQMTQSPSSLSASVGDRVTITCTASLSVSSTYLHWYQQKPGSSPKLWIYSTSNLASGVPSRFSGSGSGTSYTLTISSLQPEDFATYYCHQYHRSPLTFGGGTKVEIKGGGGSGGGGSGGGGSEVQLVESGGGLVQPGGSLRLSCAASGFSLTKYGVHWVRQAPGKGLEWVGVKWAGGSTDYNSALMSRFTISKDNAKNSLYLQMNSLRAEDTAVYYCARDHRDAMDYWGQGTLVTVSSGGGGSEVQLVESGGGLVQPGGSLRLSCAASGYSFTGYTMNWVRQAPGKGLEWVALINPYKGVSTYNQKFKDRFTISVDKSKNTAYLQMNSLRAEDTAVYYCARSGYYGDSDWYFDVWGQGTLVTVSSGGGGSGGGGSGGGGSDIQMTQSPSSLSASVGDRVTITCRASQDIRNYLNWYQQKPGKAPKLLIYYTSRLESGVPSRFSGSGSGTDYTLTISSLQPEDFATYYCQQGNTLPWTFGQGTKVEIKS
notes: Single-chain bispecific T cell engager, VL-VH-VH-VL format: humanized anti-IL13Rα2 scFv fused by GS linker to a modified UCHT1 anti-CD3 scFv; Tested as Expi293F transfection supernatant and as a recombinant purified version, detected with anti-His tag antibody; also called PB07-2134
- IC50 [1]: 21.2 ng/mL
- EC50 of killing of U87-GFP-Luc cells, 48h luciferase killing assay with recombinant BTE and primary human T cells [2]: ~0.1 ng/mL

B2: PB02-reverse (bispecific antibody)
chain: EVQLVESGGGLVQPGGSLRLSCAASGFTFSRNGMSWVRQAPGKGLEWVATVSSGGSYIYYADSVKGRFTISRDNAKNSLYLQMNSLRAEDTAVYYCARQGTTALATRFFDVWGQGTLVTVSSGGGGSGGGGSGGGGSDIQMTQSPSSLSASVGDRVTITCKASQDVGTAVAWYQQKPGKAPKLLIYSASYRSTGVPSRFSGSGSGTDFTLTISSLQPEDFATYYCQHHYSAPWTFGGGTKVEIKGGGGSDIQMTQSPSSLSASVGDRVTITCRASQDIRNYLNWYQQKPGKAPKLLIYYTSRLESGVPSRFSGSGSGTDYTLTISSLQPEDFATYYCQQGNTLPWTFGQGTKVEIKSGGGGSGGGGSGGGGSEVQLVESGGGLVQPGGSLRLSCAASGYSFTGYTMNWVRQAPGKGLEWVALINPYKGVSTYNQKFKDRFTISVDKSKNTAYLQMNSLRAEDTAVYYCARSGYYGDSDWYFDVWGQGTLVTVSS
notes: Single-chain bispecific T cell engager, VH-VL-VL-VH format: second humanized anti-IL13Rα2 clone fused by GS linker to a modified UCHT1 anti-CD3 scFv; Tested as Expi293F supernatant and as a recombinant purified version; also called PB08-1243
- IC50 [3]: 9.3 ng/mL
- IC50 [4]: 0.41 ng/mL
- binding result [5]: no binding
- EC50 of killing of U87-GFP-Luc cells, 48h luciferase killing assay with recombinant BTE and primary human T cells [2]: ~0.1 ng/mL
- binding result [6]: no binding

B3: PB01-reverse (bispecific antibody)
chain: EVQLVESGGGLVQPGGSLRLSCAASGFSLTKYGVHWVRQAPGKGLEWVGVKWAGGSTDYNSALMSRFTISKDNAKNSLYLQMNSLRAEDTAVYYCARDHRDAMDYWGQGTLVTVSSGGGGSGGGGSGGGGSDIQMTQSPSSLSASVGDRVTITCTASLSVSSTYLHWYQQKPGSSPKLWIYSTSNLASGVPSRFSGSGSGTSYTLTISSLQPEDFATYYCHQYHRSPLTFGGGTKVEIKGGGGSDIQMTQSPSSLSASVGDRVTITCRASQDIRNYLNWYQQKPGKAPKLLIYYTSRLESGVPSRFSGSGSGTDYTLTISSLQPEDFATYYCQQGNTLPWTFGQGTKVEIKSGGGGSGGGGSGGGGSEVQLVESGGGLVQPGGSLRLSCAASGYSFTGYTMNWVRQAPGKGLEWVALINPYKGVSTYNQKFKDRFTISVDKSKNTAYLQMNSLRAEDTAVYYCARSGYYGDSDWYFDVWGQGTLVTVSS
- EC50 of killing of U87-GFP-Luc cells, 48h luciferase killing assay with recombinant BTE and primary human T cells [2]: ~0.1 ng/mL

B4: PB02-forward (bispecific antibody)
chain: DIQMTQSPSSLSASVGDRVTITCKASQDVGTAVAWYQQKPGKAPKLLIYSASYRSTGVPSRFSGSGSGTDFTLTISSLQPEDFATYYCQHHYSAPWTFGGGTKVEIKGGGGSGGGGSGGGGSEVQLVESGGGLVQPGGSLRLSCAASGFTFSRNGMSWVRQAPGKGLEWVATVSSGGSYIYYADSVKGRFTISRDNAKNSLYLQMNSLRAEDTAVYYCARQGTTALATRFFDVWGQGTLVTVSSGGGGSEVQLVESGGGLVQPGGSLRLSCAASGYSFTGYTMNWVRQAPGKGLEWVALINPYKGVSTYNQKFKDRFTISVDKSKNTAYLQMNSLRAEDTAVYYCARSGYYGDSDWYFDVWGQGTLVTVSSGGGGSGGGGSGGGGSDIQMTQSPSSLSASVGDRVTITCRASQDIRNYLNWYQQKPGKAPKLLIYYTSRLESGVPSRFSGSGSGTDYTLTISSLQPEDFATYYCQQGNTLPWTFGQGTKVEIKS
notes: Single-chain bispecific T cell engager, VL-VH-VH-VL format: second humanized anti-IL13Rα2 clone fused by GS linker to a modified UCHT1 anti-CD3 scFv; Tested as Expi293F supernatant and as a recombinant purified version; also called PB08-2134
- IC50 [1]: 4.2 ng/mL
- IC50 [4]: 11.2 ng/mL
- binding result [5]: no binding
- EC50 of killing of U87-GFP-Luc cells, 48h luciferase killing assay with recombinant BTE and primary human T cells [2]: ~0.1 ng/mL
- binding result [6]: no binding
